B1: TPR t1 (parent)
chain: GACCAAUCUGCCCUCAGAGCUCGAGAACAUCUUCGGAUGCAGAGGAGGCAGGCUUCGGUGGCGCGAUAGCGCCAACGUCCUCAACCUCCAAUGCAUCCCACCACAUGAUGAUGCCUGAAGAGCCUUGGUUUUUUG

The variants in this data set derive from B1. Briefly: polymerase ribozyme fitness, log enrichment relative to wild type (log ratio); higher = more active; in vitro selection for triplet polymerase activity. In short, it runs like this: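 Both subunits of a heterodimeric triplet polymerase ribozyme were given their own mutant library, built by PCR and transcribed. Each library was annealed with a biotinylated primer, the partner subunit and triplets, incubated frozen at −7 °C, and its extended constructs gel-excised, captured on streptavidin beads and amplified by RT-PCR, all in one round done in triplicate. Fitness is the logarithm of genotype enrichment relative to wild-type enrichment, with replicates averaged by inverse-variance weighting. That logarithm is base 2, and Illumina-sequenced genotypes needed ≥10 input reads and ≥1 read per output.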
As to A90G C101G C115G, the “polymerase ribozyme fitness (log ratio)” value was -2.74. Then C89U A108G A119G U131G U132C, with -1.34; and A91U U109A, with -8.07. Then C85A C89A U106A C114A, with -5.22. The result for U81A C102A reads -3.36; that for C80A C85U C86A U87C, -7.24. A90U U125G: the “polymerase ribozyme fitness (log ratio)” value was -1.11.

U87C G107U: the “polymerase ribozyme fitness (log ratio)” value is -4.55. The result for A83C A121G reads 1.63; that for C82A U92A, -3.43; that for C88G C104A U112G, -4.26. Regarding A83U G120U U130C, the “polymerase ribozyme fitness (log ratio)” value was -0.376. For the variant C89A U129G, the “polymerase ribozyme fitness (log ratio)” value was -2.64. Regarding U81G G120A, the “polymerase ribozyme fitness (log ratio)” value is -3.83. Then A90U A105G, with -3.78; and U87A G120U, with 0.227; and C86U A90U, with -1.08.

Turning to C85A A100C, the “polymerase ribozyme fitness (log ratio)” value is -2.71. Then C88U G110C, with -3.92; and C88G U130G, with -0.5; and C88G U130C, with -0.362. Take C82U C89A: the “polymerase ribozyme fitness (log ratio)” value was -1.21. In the case of C85A C99U, the “polymerase ribozyme fitness (log ratio)” value was -4.7. Then U92C U132C, with -1.85; and C89G G93U G120U, with -3.31; and U92G U109A C124A U131A, with -6.86. U92G C123A: the “polymerase ribozyme fitness (log ratio)” value was -2.78. C82G C123G U126C G128C: the “polymerase ribozyme fitness (log ratio)” value is -2.13. On to A91U U96G G120U, for which the “polymerase ribozyme fitness (log ratio)” value is -1.75. Take U87C G120A G127A: the “polymerase ribozyme fitness (log ratio)” value was -1.22.

Regarding G93A C104A G113C, the “polymerase ribozyme fitness (log ratio)” value was -4.27. Then A84C U116C, with 0.658.

Consider C85A G110A G127A, for which the “polymerase ribozyme fitness (log ratio)” value was -3.71.

Take C89A C123U C124G: the “polymerase ribozyme fitness (log ratio)” value turned out to be 1.14.

Take U81C C97U C114A: the “polymerase ribozyme fitness (log ratio)” value is -3.09. On to C89G C104A, for which the “polymerase ribozyme fitness (log ratio)” value was -3.34. The result for C80A U109A reads -6.3. Then C80A U109G, with -5.76.

For C89U G120C, the “polymerase ribozyme fitness (log ratio)” value was determined as 0.737. Then C86A A90C G135U, with -2.98; and U87A C114A, with -2.58.

U87A C89U: the “polymerase ribozyme fitness (log ratio)” value turned out to be 0.835. Then G93A A95G, with -1.81. For C82A U87A, the “polymerase ribozyme fitness (log ratio)” value is -0.237.

Take C86G C101A: the “polymerase ribozyme fitness (log ratio)” value was -1.32. Turning to A91G U112A G127C, the “polymerase ribozyme fitness (log ratio)” value was -1.56.

Consider C89A C124U, for which the “polymerase ribozyme fitness (log ratio)” value is 0.618. On to C89G G120C, for which the “polymerase ribozyme fitness (log ratio)” value is -0.58. For C86U U112A, the “polymerase ribozyme fitness (log ratio)” value came out at 0.825. Then C89U U109C, with -3.31; and C82G C97A U112C C115G U133G, with -6.38; and A90U G110U, with -3.55. The result for U87G A121C reads 1.82. The result for C86A C123U C124G reads 0.744; that for A83G G93A G120U, -1.68. In the case of U87C U130C, the “polymerase ribozyme fitness (log ratio)” value is 0.298. The result for C88A C101U A111U reads -3.57; that for U87A G122A, -0.168. Turning to U87A A105U U116C, the “polymerase ribozyme fitness (log ratio)” value was -3.54.

As to A83U C98U U130C, the “polymerase ribozyme fitness (log ratio)” value was -0.673. Then A91G U125A, with -0.619; and C85U U87A C88A, with -2.23; and C80U C98U, with -1.69. Regarding C89A G120A G128C U132C, the “polymerase ribozyme fitness (log ratio)” value is -3.37. Then A91U C98U, with -3.3.

As to U87A C115U, the “polymerase ribozyme fitness (log ratio)” value was -0.739. Then U87A C115A, with 0.108; and C86U C97U, with -0.517. Then C80U C101U A118G A121U U131A, with 0.732; and A83C U112G G113C G120U U130C, with -7.33; and U92A U106C C114A, with -4.09. The result for C82U U87C G113A reads -1.19; that for G93A C115G, -2.4; that for A90G A95C, -0.759. For A90C C97U U112C C114A, the “polymerase ribozyme fitness (log ratio)” value is -3.18. As to A83C C114A C123G C124G, the “polymerase ribozyme fitness (log ratio)” value is -0.19.

Consider A83U A91C G128A, for which the “polymerase ribozyme fitness (log ratio)” value is -2.84. As for C88U C123A, the “polymerase ribozyme fitness (log ratio)” value turned out to be 1.43.

For C88U C123U, the “polymerase ribozyme fitness (log ratio)” value came out at 0.953. As for C85U C99U, the “polymerase ribozyme fitness (log ratio)” value was -4.89. Turning to C88A U133A, the “polymerase ribozyme fitness (log ratio)” value stood at 0.0129.

With U87G C124A, the “polymerase ribozyme fitness (log ratio)” value was found to be 0.735. Then A90U C114G G117A, with -4.57; and C86G C89A C114A, with -4.58. The result for G93A G122A U125G reads -3.18; that for C86U C114U, -1.7; that for C82A G93C A111C, -0.977.

For C86A C114U A119U, the “polymerase ribozyme fitness (log ratio)” value is -3.57. Consider A90C C115A, for which the “polymerase ribozyme fitness (log ratio)” value is -0.409. As to U92A U116C, the “polymerase ribozyme fitness (log ratio)” value was -3.44. Turning to C88A C123U, the “polymerase ribozyme fitness (log ratio)” value came to 1.08. Consider A90U U112G, for which the “polymerase ribozyme fitness (log ratio)” value is -3.12. Then C89U G117C, with -4.26; and C86G G93C U132C, with -2.42; and U87C C114G, with -2.

With A90C A100U A111G, the “polymerase ribozyme fitness (log ratio)” value is -1.79. Regarding U81G U130A, the “polymerase ribozyme fitness (log ratio)” value was -3.23. As for C86A U92A G93C G120A, the “polymerase ribozyme fitness (log ratio)” value was -4.42. The result for C86A C115A G128A U133A reads -4.43; that for C82U G117U, -2.7; that for C86G A100U, -0.874. Then U81C U106A, with 0.0236. Then A84U U112G, with 0.742.

A84U C101U G122A U132A: the “polymerase ribozyme fitness (log ratio)” value is -1.15. The result for A91U A121C C124A reads 0.449; that for U87A C89U G128A, -2.15; that for C85U G120A, -0.267.

Take C89U C123A: the “polymerase ribozyme fitness (log ratio)” value turned out to be 0.125. The result for C89A A111U G122A reads -4.54.

With G93A A95C A121U, the “polymerase ribozyme fitness (log ratio)” value worked out at 0.651. For the variant U87A U112A, the “polymerase ribozyme fitness (log ratio)” value came to 1.76. Turning to A90G C101A C123A, the “polymerase ribozyme fitness (log ratio)” value is -0.711. For C85G U130A G135U, the “polymerase ribozyme fitness (log ratio)” value was -3.18.

Consider U87C A103U, for which the “polymerase ribozyme fitness (log ratio)” value is -3.8. Then C80U C102A U106A U112A, with -4.1; and C89A A105C, with -4.64. Consider U87G G93A U112A U133A, for which the “polymerase ribozyme fitness (log ratio)” value turned out to be 1.36. In the case of A83G C89A, the “polymerase ribozyme fitness (log ratio)” value is -3.89.

Turning to C80U C97U, the “polymerase ribozyme fitness (log ratio)” value was -0.856. For C85A C104U, the “polymerase ribozyme fitness (log ratio)” value is -1.07.

U92A G110C: the “polymerase ribozyme fitness (log ratio)” value is -6.13. Then U92A G110A, with -5.07; and C85U C88U, with -0.176.

Take A84U C115A: the “polymerase ribozyme fitness (log ratio)” value is -0.457.

Take A90G C104U U112C A121U U130C: the “polymerase ribozyme fitness (log ratio)” value is 2.04. For U87C A105G, the “polymerase ribozyme fitness (log ratio)” value is -1.78.

With C80G U106G G110A C124G, the “polymerase ribozyme fitness (log ratio)” value was -6.57. For A84U G127A, the “polymerase ribozyme fitness (log ratio)” value is -0.952.

For the variant U87A C124U, the “polymerase ribozyme fitness (log ratio)” value came out at 1.04. With C89G G110U, the “polymerase ribozyme fitness (log ratio)” value was -2.85.

C86A A90U: the “polymerase ribozyme fitness (log ratio)” value is -1.19.

With C86A A90G, the “polymerase ribozyme fitness (log ratio)” value turned out to be 0.132. The result for C89G A100C reads -3.25; that for C82G C98A A118U, -5.57; that for A91U C115G, -2.97. The result for A91U C115U reads -2.04. As to A90C U92C C102A G120C U132A, the “polymerase ribozyme fitness (log ratio)” value is -4.27. With A83C G110U G117U, the “polymerase ribozyme fitness (log ratio)” value is -5.17. The result for U81C G127C reads -1.22; that for C85U C123G, 0.896. For C86G G120A, the “polymerase ribozyme fitness (log ratio)” value is -0.356.

With C89G A111G G113C, the “polymerase ribozyme fitness (log ratio)” value was -3.54.

As for G93A C114A A118C, the “polymerase ribozyme fitness (log ratio)” value is -3.7. As to C85U U96C, the “polymerase ribozyme fitness (log ratio)” value is -0.852. Regarding C80A U129A, the “polymerase ribozyme fitness (log ratio)” value is -3.77. A90C A91C G110A: the “polymerase ribozyme fitness (log ratio)” value was -4.36. For the variant A83U G107A, the “polymerase ribozyme fitness (log ratio)” value was -5.83. Turning to C80U A84U, the “polymerase ribozyme fitness (log ratio)” value is -1.02. Then A83U G120A U125A, with 0.929. Regarding G93A C98U C124G, the “polymerase ribozyme fitness (log ratio)” value was 0.653. Then U87C C124U, with 0.583; and C86G C102G C115A U133A, with -5.49; and C82A C123U, with 0.707.

As for C85U U112A G122U U126G, the “polymerase ribozyme fitness (log ratio)” value was -4.47. The result for A90C C123U reads 0.206. Then U92A A111G, with -3.82; and C86G U112G, with 0.00839. Then A83G A90G, with -0.465; and C89A U130G, with -1.51; and C82G C88U A103C G117C, with -5.02. For C80G U87A U116G A119U C124G, the “polymerase ribozyme fitness (log ratio)” value is -6.5. Then A90G U125G, with -0.567.

Turning to C88A C89G C123U U134G, the “polymerase ribozyme fitness (log ratio)” value was 0.911. Then A90U G117U, with -3.37; and C89U G122A, with -0.697; and C89U G122U, with -0.616. Then C85U C86G, with -1.13.

The values above are taken from the RNAGym collection of RNA variant scans (doi:10.1073/pnas.2313332121).
